How the values were obtained:
Assay in all cases: co-IP, IgG control, lysate of cells with C-FLAG B3GNT2; mass spectrometry
FUBP3 (human) = FUBP3 (human) (UniProt Q96I24)
PUM1 (human) = PUM1 (human) (UniProt Q14671)
RPL10 (human) = RPL10 (human) (UniProt P27635)
HNRNPK (human) = HNRNPK (human) (UniProt P61978)
FAU (human) = FAU (human) (UniProt P62861)
RBM39 (human) = RBM39 (human) (UniProt Q14498)
NUFIP2 (human) = NUFIP2 (human) (UniProt Q7Z417)
ATXN2 (human) = ATXN2 (human) (UniProt Q99700)
SERBP1 (human) = molecular target: T1, SERBP1 (human) (UniProt Q8NC51)
T1 sequence (looked up): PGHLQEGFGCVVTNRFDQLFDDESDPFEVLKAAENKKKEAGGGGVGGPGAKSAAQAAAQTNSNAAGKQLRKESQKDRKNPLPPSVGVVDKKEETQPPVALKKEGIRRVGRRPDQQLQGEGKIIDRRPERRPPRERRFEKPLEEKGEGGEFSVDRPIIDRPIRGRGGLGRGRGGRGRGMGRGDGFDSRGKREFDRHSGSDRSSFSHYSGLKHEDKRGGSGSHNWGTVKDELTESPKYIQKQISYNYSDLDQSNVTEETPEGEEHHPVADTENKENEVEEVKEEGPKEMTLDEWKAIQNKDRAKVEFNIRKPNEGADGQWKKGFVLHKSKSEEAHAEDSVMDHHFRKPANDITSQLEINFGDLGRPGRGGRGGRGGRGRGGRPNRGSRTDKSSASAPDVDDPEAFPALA

MYH11 (human) = MYH11 (human) (UniProt P35749)
MOV10 (human) = molecular target: T2, MOV10 (human) (UniProt Q9HCE1)
T2 sequence (looked up): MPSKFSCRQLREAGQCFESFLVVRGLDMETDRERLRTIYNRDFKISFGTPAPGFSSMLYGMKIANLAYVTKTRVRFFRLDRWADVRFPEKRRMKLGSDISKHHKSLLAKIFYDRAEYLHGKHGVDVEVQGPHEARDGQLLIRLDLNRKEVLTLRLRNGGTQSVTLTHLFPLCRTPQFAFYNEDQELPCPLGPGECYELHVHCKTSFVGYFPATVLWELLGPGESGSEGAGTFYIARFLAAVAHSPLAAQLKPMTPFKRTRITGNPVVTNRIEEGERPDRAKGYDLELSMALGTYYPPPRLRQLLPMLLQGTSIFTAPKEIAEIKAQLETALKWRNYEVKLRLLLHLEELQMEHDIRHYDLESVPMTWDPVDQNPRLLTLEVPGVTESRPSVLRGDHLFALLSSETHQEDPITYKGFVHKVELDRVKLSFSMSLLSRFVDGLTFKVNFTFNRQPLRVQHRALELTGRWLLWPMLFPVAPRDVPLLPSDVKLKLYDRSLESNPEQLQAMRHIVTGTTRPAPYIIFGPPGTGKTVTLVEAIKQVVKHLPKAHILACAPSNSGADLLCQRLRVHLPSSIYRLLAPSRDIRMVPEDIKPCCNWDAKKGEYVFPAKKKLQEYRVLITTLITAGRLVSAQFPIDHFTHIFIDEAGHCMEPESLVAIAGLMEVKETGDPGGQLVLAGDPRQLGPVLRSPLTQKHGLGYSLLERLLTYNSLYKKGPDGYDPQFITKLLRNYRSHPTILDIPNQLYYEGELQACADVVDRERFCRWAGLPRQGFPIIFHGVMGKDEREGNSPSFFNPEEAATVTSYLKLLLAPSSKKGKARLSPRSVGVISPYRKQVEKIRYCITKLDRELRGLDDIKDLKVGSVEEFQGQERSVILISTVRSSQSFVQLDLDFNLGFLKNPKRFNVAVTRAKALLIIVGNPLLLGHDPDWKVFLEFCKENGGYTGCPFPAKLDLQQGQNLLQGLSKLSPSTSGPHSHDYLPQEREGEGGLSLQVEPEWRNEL

DNAJC3 (human) = DNAJC3 (human) (UniProt Q13217)
HADHB (human) = HADHB (human) (UniProt P55084)
C1orf68 (human) = C1orf68 (human) (UniProt Q5T750)
LMNA (human) = LMNA (human) (UniProt P02545)
UBAP2L (human) = UBAP2L (human) (UniProt Q14157)
LSM12 (human) = LSM12 (human) (UniProt Q3MHD2)
KRT6B (human) = KRT6B (human) (UniProt P04259)
PRBP1 (human) = PRBP1 (human) (UniProt P26599)
GGCT (human) = GGCT (human) (UniProt O75223)
SPTAN1 (human) = SPTAN1 (human) (UniProt Q13813)

Sequence of KRT6B (human) (P04259 2-564 limits assumed): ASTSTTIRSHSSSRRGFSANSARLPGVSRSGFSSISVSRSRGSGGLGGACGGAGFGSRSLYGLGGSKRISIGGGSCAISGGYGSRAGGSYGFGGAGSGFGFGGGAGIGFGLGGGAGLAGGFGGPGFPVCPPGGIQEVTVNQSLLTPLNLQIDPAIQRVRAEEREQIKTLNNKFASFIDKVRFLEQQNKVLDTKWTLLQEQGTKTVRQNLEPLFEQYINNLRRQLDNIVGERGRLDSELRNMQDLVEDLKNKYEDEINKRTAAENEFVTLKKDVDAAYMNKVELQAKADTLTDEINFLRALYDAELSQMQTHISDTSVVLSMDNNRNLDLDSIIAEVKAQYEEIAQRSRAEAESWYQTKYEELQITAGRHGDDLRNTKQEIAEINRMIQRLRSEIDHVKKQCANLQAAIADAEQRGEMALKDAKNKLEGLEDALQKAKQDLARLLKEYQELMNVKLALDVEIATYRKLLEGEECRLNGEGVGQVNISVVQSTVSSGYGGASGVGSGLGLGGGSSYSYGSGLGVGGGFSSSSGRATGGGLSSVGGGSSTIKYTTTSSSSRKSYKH
Sequence of ATXN2 (human) (Q99700 whole entry): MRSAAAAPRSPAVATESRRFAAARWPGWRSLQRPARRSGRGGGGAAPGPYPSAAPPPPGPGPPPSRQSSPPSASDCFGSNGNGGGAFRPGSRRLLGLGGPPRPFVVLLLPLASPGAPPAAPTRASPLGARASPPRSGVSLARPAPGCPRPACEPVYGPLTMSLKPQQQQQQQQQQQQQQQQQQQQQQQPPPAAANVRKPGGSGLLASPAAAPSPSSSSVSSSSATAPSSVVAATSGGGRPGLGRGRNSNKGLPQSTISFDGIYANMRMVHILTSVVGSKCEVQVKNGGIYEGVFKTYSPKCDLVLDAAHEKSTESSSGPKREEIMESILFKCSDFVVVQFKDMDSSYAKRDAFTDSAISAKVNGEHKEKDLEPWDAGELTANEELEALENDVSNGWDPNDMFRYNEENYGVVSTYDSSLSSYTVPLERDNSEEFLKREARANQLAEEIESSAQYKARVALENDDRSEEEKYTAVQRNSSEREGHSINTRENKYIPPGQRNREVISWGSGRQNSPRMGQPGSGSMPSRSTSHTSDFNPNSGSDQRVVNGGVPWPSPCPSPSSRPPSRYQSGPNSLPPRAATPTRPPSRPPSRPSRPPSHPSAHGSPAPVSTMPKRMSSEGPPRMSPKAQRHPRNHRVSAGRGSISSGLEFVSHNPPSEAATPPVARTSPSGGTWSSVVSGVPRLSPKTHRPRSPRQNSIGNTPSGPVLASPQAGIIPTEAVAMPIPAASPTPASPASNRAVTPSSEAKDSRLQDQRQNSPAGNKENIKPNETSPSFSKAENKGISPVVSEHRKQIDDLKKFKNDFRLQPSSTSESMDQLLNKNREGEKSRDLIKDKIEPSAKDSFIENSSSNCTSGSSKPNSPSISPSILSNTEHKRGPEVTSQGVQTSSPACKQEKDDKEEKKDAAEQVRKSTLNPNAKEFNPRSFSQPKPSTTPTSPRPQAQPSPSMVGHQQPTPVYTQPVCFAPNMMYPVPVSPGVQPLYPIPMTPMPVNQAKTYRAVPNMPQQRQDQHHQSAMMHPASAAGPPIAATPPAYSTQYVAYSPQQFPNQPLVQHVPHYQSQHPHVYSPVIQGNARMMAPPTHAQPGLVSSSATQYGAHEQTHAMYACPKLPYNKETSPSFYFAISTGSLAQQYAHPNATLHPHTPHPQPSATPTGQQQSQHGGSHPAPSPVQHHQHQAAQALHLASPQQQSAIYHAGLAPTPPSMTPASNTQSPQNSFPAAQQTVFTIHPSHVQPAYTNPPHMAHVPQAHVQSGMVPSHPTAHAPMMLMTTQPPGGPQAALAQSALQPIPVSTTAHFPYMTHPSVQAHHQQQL
Sequence of RBM39 (human) (Q14498 other isoform, or with tags, fused parts or gaps limits assumed): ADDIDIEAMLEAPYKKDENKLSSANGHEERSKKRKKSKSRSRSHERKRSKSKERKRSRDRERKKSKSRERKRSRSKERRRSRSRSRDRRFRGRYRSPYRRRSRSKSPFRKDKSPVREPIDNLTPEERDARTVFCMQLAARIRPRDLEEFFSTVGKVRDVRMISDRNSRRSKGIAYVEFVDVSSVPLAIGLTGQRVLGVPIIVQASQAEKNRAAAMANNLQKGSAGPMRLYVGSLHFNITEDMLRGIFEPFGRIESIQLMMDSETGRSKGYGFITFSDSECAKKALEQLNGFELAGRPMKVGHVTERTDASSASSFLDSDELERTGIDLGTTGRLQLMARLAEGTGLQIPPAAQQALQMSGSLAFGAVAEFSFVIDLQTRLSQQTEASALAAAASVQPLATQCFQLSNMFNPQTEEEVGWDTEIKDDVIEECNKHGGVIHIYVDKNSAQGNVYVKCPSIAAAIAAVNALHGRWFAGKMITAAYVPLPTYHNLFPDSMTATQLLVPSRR
Sequence of NUFIP2 (human) (Q7Z417 whole entry): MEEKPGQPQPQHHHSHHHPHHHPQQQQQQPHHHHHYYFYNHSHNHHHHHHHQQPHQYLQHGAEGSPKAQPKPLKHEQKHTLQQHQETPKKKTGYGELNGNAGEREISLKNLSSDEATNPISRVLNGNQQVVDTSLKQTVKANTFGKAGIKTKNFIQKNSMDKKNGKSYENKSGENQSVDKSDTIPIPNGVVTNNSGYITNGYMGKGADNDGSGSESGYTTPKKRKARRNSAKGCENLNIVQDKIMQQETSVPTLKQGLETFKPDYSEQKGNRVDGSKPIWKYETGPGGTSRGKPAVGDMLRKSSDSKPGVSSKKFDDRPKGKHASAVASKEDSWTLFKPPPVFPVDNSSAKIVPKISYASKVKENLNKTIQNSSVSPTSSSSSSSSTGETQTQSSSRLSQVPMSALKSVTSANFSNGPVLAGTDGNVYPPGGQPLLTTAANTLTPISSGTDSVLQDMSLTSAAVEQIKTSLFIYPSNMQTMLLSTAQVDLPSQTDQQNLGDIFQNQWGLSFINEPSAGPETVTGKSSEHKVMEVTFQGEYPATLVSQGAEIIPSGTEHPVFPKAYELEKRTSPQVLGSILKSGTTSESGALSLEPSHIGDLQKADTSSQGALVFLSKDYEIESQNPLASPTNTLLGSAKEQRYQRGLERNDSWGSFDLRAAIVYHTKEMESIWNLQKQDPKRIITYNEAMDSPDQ
Sequence of HNRNPK (human) (P61978 other isoform, or with tags, fused parts or gaps limits assumed): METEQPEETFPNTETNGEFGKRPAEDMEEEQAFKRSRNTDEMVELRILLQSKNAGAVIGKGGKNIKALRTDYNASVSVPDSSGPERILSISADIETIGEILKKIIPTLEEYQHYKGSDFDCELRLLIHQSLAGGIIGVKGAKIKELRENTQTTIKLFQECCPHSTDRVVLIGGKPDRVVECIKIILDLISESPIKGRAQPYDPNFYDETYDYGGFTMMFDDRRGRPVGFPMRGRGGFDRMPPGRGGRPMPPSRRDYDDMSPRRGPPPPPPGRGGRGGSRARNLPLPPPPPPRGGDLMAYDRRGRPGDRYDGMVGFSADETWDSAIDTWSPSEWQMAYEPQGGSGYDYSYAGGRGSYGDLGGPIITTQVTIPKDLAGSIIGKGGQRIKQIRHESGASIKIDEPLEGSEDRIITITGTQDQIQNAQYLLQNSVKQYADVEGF
Sequence of LMNA (human) (P02545 1-646 limits assumed): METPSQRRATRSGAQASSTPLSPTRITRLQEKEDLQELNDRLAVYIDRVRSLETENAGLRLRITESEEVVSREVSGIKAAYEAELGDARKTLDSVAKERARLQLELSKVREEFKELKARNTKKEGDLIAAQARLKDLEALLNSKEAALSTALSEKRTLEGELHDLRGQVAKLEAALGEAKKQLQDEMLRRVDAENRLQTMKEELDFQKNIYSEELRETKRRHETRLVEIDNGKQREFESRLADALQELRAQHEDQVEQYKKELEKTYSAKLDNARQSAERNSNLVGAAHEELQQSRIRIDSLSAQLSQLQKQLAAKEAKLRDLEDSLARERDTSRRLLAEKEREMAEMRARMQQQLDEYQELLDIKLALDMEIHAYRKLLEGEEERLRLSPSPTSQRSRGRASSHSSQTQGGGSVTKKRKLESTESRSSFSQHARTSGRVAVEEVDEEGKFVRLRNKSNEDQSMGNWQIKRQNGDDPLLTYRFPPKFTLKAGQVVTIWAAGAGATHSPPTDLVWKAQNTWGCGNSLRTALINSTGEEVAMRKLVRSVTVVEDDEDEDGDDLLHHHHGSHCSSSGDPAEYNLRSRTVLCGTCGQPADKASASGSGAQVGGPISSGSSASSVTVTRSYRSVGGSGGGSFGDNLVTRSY
Sequence of DNAJC3 (human) (Q13217 32-504 limits assumed): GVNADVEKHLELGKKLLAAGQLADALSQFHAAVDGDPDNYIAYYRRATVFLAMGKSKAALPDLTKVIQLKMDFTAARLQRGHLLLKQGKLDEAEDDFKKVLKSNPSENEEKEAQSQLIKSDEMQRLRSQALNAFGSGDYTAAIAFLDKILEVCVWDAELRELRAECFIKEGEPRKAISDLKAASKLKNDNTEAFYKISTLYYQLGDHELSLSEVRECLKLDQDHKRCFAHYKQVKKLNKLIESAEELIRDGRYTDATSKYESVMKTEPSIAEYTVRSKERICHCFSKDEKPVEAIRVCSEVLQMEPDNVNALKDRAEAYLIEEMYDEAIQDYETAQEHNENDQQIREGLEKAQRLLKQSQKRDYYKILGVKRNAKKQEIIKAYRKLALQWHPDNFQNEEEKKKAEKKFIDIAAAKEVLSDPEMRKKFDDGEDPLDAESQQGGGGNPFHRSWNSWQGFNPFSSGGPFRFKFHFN
Sequence of LSM12 (human) (Q3MHD2 2-195 limits assumed): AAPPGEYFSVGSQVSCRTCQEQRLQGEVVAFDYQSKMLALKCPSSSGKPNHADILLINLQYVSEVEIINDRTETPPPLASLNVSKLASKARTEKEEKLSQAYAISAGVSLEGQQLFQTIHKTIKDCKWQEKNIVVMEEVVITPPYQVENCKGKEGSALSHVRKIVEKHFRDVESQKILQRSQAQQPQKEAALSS
Sequence of GGCT (human) (O75223 whole entry): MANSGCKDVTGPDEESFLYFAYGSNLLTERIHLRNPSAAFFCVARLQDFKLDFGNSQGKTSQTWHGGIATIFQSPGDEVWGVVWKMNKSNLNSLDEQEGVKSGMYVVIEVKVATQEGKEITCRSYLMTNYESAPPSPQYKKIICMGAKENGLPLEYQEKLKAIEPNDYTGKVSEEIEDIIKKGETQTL

IgG control (Millipore Sigma 12-371) (antibody)
co-IP mass spectrometry count (FUBP3 (human)): 7 | co-IP mass spectrometry count (PUM1 (human)): 0 | co-IP mass spectrometry count (RPL10 (human)): 3 | co-IP mass spectrometry count (HNRNPK (human)): 10 | co-IP mass spectrometry count (FAU (human)): 5 | co-IP mass spectrometry count (RBM39 (human)): 3 | co-IP mass spectrometry count (NUFIP2 (human)): 4 | co-IP mass spectrometry count (ATXN2 (human)): 3 | co-IP mass spectrometry count (SERBP1 (human)): 5 | co-IP mass spectrometry count (MYH11 (human)): 5 | co-IP mass spectrometry count (MOV10 (human)): 3 | co-IP mass spectrometry count (DNAJC3 (human)): 0 | co-IP mass spectrometry count (HADHB (human)): 0 | co-IP mass spectrometry count (C1orf68 (human)): 4 | co-IP mass spectrometry count (LMNA (human)): 18 | co-IP mass spectrometry count (UBAP2L (human)): 15 | co-IP mass spectrometry count (LSM12 (human)): 0 | co-IP mass spectrometry count (KRT6B (human)): 295 | co-IP mass spectrometry count (PRBP1 (human)): 6 | co-IP mass spectrometry count (GGCT (human)): 0 | co-IP mass spectrometry count (SPTAN1 (human)): 0
